Holding throughout (assay type): biochemical, bovine
Experiment [1] addresses T1, BSA (Bos taurus, UniProt P02769).
T1 construct: purchased Sigma-Aldrich A3059
The experiment can be described thus: Tryptic digestion without dye, sub-sampled and quenched with protease inhibitors, then read with epicocconone (Example 8). As to conditions: no dye during digestion; sub-sampling and quenching with protease inhibitors. The procedure: 1. The trypsin inhibitors, leupeptin and trypsin-inhibitor (soybean) were prepared at a concentration of 1 mM in RO water and 0.48 mg/mL in RO water, respectively. 2. The protein samples were prepared as previously described in Example 6. The reduced and alkylated protein samples were diluted 1:10 in 100 mM bicine buffer (pH 8.4-5). 3. Trypsin (4.62 μg) was added to each protein sample (231 μg/300 μL) at a ratio of 1:50 and the samples were incubated at 37° C. 4. Sub-samples were collected for inhibition of trypsin activity either by leupeptin or by trypsin inhibitor (soybean). • a. Forty-five microlitres of the tryptic digests were sub-sampled at 0, 10, 20, 30, 60, […], 90, and 120 minutes and immediately added to 1.5 mL tubes containing 5 μL of 1 mM leupeptin. The sub-samples treated with leupeptin inhibitor were left at room temperature until fluorescence was read. • b. […] The sub-samples treated with soybean trypsin inhibitor were left at room temperature until fluorescence was read. […] Fluorescence of the sub-samples was read at Ex/Em=540-10/630-10 nm with 10 flashes. […] The fluorescence value was normalised by subtracting basal fluorescence of corresponding controls from the raw fluorescence of the sub-samples. […]

Experiment [2] deals with T1, BSA. In words: Real-time monitoring of BSA proteolysis with different fluorophores in the presence of detergent (Example 7). The settings on record: method of example 7, real-time with fluorophore and SDS. As to the method:
• 1 Trypsin and papain digestion was carried out in bicine buffer at pH 8.4 and pH 7.0, respectively. • 2 BSA was prepared in 10 mg/mL in 100 mM bicine buffer. • 3 One hundred microliter of the BSA sample was used for trypsin and papain digestion.
7.2.2 Real-Time Monitoring of Trypsin Digestion with Fluorophores in the Presence of a Detergent • 1. The reduced and denatured BSA sample was diluted 10-fold in 100 mM bicine buffer (25 μL+225 μL bicine buffer). • 2. One hundred microliter of the sample (step 1) was added to a well in a 96-well microtiter plate. Controls included a bicine-based digestion buffer, a trypsin sample or papain only and an undigested BSA sample (no trypsin or no papain). The assay consists of a 4-well sample set for one fluorophore, e.g. SYPROorange. Three sets of samples were prepared in the same manners for the remaining fluorophores, e.g. Nile red, epicocconone and […]. • 3. SYPROorange stock solution was diluted 5000-fold in the bicine buffer (pH 8.4). Nile red and epicocconone and stock solutions were diluted 100-fold in the 100 mM bicine (pH 8.5). ANS was diluted 100-fold in the bicine buffer (pH 7.0). • 4. […] Fluorescence development was monitored in real time every 2 minutes up to 400 minutes using FluoStar (Ex/Em=485/600±10 for SYPROorange; 540±10/630±10 for epicocconone and Nile red; 355/460 for ANS). […]

The target in experiment [3] is T1, BSA. The experiment can be described thus: Tryptic digestion of BSA followed with Nile Red. As to conditions: Nile Red reporter dye. The procedure: • As per Example 2 above. • Nile Red (20 mM in ethanol, Sigma-Aldrich, 73189) diluted to 100-fold in 50 mM bicine
As per Example 2 except the Fluorostar plate reader was set to 520 nm excitation and 630 (±10 nm) bandpass emission filter.

T1 sequence (P02769 25-607): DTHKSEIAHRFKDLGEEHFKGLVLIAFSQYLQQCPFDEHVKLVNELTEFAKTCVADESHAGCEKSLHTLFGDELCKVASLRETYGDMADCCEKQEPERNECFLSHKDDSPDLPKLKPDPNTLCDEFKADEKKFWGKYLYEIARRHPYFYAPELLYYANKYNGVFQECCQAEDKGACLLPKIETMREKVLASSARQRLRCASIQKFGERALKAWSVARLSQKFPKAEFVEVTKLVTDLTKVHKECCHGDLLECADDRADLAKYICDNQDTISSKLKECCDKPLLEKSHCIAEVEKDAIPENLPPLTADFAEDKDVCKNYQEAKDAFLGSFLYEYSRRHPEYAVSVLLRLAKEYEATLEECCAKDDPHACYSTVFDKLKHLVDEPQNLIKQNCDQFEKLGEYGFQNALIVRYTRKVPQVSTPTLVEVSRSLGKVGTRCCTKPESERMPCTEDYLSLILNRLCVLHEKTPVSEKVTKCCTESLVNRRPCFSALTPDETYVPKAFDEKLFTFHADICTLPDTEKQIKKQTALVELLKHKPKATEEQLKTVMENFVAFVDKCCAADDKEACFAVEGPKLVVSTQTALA

B1: trypsin: Proteomics grade trypsin protease, Sigma-Aldrich T6567 (protein, UniProt P00761 9-231, looked up)
Trypsin: IVGGYTCAANSIPYQVSLNSGSHFCGGSLINSQWVVSAAHCYKSRIQVRLGEHNIDVLEGNEQFINAAKIITHPNFNGNTLDNDIMLIKLSSPATLNSRVATVSLPRSCAAAGTECLISGWGNTKSSGSSYPSLLQCLKAPVLSDSSCKSSYPGQITGNMICVGFLEGGKDSCQGDSGGPVVCNGQLQGIVSWGYGCAQKNKPGVYTKVCNYVNWIQQTIAAN
With B1, the results for the “pseudo-first order rate constant for digestion of BSA” value in experiment [1] and in experiment [2] were 0.3 min⁻¹ and 0.1 to 0.2 min⁻¹, respectively. For the same molecule, in experiment [3], the “apparent first order rate constant for tryptic digestion” value came out at 0.1302 min⁻¹.

Source of the values: US20090111104A1, “Method for Monitoring Hydrolytic Activity” (Fluorotechnics Pty Limited, priority 2005, published 2009).
